The values that follow come from patent US9670288B2, “Osteoprotegerin in neuroprotection” (Massachusetts Eye and Ear Infirmary, priority 2011, dated 2017).

Entries after “also recorded” stand apart in the source; their conditions may differ.

Assay type in all cases: cell-based, mice
The test system of experiment [1] is ERK kinase. Nature of the experiment: H2O2 induced ERK kinase activation in cultured Schwann cells / SGCs (immunoblot, p-ERK). Conditions: opg −/− Schwann cells; pre-treatment 3 hours and co-treatment; OPG 100 ng/L, PD 98059 20 nM, zoledronate 10 μM; 500 μM H2O2. (In general: In western blotting, separated proteins are transferred to a membrane and probed.)
Experiment [2] deals with spiral ganglion cells (SGCs) / Schwann cells. As to the kind of experiment: H2O2 induced oxidative cell death of cultured spiral ganglion cells (nuclear condensation, Hoechst 33342). The settings on record: for H2O2 induced oxidative cell death: opg −/− SGCs/Schwann cells, pretreatment followed by co-treatment, OPG 100 ng/L, PD 98059 20 nM, zoledronate 10 μM, 500 μM H2O2.
The subject of another experiment is Schwann cells. Nature of the experiment: TRAIL induced cell death (cleaved caspase 3) in cultured Schwann cells. Conditions: for TRAIL induced cleaved caspase 3 (cell death): opg −/− Schwann cells, pretreatment, TRAIL 100 ng/ml, OPG 100 ng/l, PD98059 20 nM, zoledronate 10 μM.
The test system of experiment [3] is ERK kinase. As to the kind of experiment: TRAIL induced ERK phosphorylation in cultured Schwann cells (immunoblot). The settings on record: for TRAIL induced ERK phosphorylation / ERK activation: opg −/− Schwann cells, pretreatment, TRAIL 100 ng/ml, OPG 100 ng/l, PD98059 20 nM, zoledronate 10 μM.
In experiment [4] the test system is opg −/− spheres. As to the kind of experiment: Proliferation of floating spiral ganglion spheres (BrdU staining). Conditions: third generation opg −/− spheres, Rankl 100 ng/ml, OPG 100 ng/ml, zoledronate 1 μM, 3 days, passaged. The procedure:
For each experiment, spiral ganglia of four to six 1-3 day old WT or opg −/− mice were dissected in HBSS. The SGCs (neurons and glia) were dissociated using trypsin (0.25%) for 13 min in PBS at 37° C. The enzymatic digestion was stopped by adding 10% FBS in DMEM-high glucose medium. The tissue was washed twice and gently triturated. The cell suspension was passed through a 70 μm cell strainer (BD Labware). Single cells were cultured in DMEM-high glucose and F12 (mixed 1:1) supplemented with N2 and B27 (Invitrogen), EGF (20 ng/mL; Chemicon), bFGF (10 ng/mL; Chemicon), IGF-1 (50 ng/mL; Chemicon), and heparan sulfate (50 ng/mL; Sigma). Newly formed spheres were cultured in ultra-low-cluster plates (Costar) for 4 days and were termed first generation spheres. Spheres were subsequently passaged every 4 days until the third generation, when 5-10 spheres were collected and dissociated (Oshima K, Grimm C M, Corrales C E, Senn P, Martinez Monedero R, Géléoc GS, Edge A, Holt J R, Heller S. 2007. J Assoc Res Otolaryngol. 2007; 8:18-31). Spheres were passaged at a clonal level for 3 more times. Before each passage, the sphere morphology was assessed and the spheres were counted using the Metamorph counting software. At the third generation, spiral ganglion spheres from WT and opg −/− mice were separated into 4 groups and treated with Rankl (100 ng/ml), OPG (100 ng/ml) or zoledronate (1 μM). […]

The subject of experiment [5] is opg −/− spheres. As to the kind of experiment: Apoptosis in floating spiral ganglion spheres (cleaved caspase 3 staining). Conditions: third generation opg −/− spheres, Rankl 100 ng/ml, OPG 100 ng/ml, zoledronate 1 μM, 3 days, passaged. How it is done: For each experiment, spiral ganglia of four to six 1-3 day old WT or opg −/− mice were dissected in HBSS. The SGCs (neurons and glia) were dissociated using trypsin (0.25%) for 13 min in PBS at 37° C. The enzymatic digestion was stopped by adding 10% FBS in DMEM-high glucose medium. The tissue was washed twice and gently triturated. The cell suspension was passed through a 70 μm cell strainer (BD Labware). Single cells were cultured in DMEM-high glucose and F12 (mixed 1:1) supplemented with N2 and B27 (Invitrogen), EGF (20 ng/mL; Chemicon), bFGF (10 ng/mL; Chemicon), IGF-1 (50 ng/mL; Chemicon), and heparan sulfate (50 ng/mL; Sigma). Newly formed spheres were cultured in ultra-low-cluster plates (Costar) for 4 days and were termed first generation spheres. Spheres were subsequently passaged every 4 days until the third generation, when 5-10 spheres were collected and dissociated (Oshima K, Grimm C M, Corrales C E, Senn P, Martinez Monedero R, Géléoc GS, Edge A, Holt J R, Heller S. 2007. J Assoc Res Otolaryngol. 2007; 8:18-31). Spheres were passaged at a clonal level for 3 more times. Before each passage, the sphere morphology was assessed and the spheres were counted using the Metamorph counting software. At the third generation, spiral ganglion spheres from WT and opg −/− mice were separated into 4 groups and treated with Rankl (100 ng/ml), OPG (100 ng/ml) or zoledronate (1 μM). The control group was untreated. After 3 days of treatment, the spheres were passaged and treated again for 3 days. Twelve hours before plating, proliferating cells in the spheres were labeled with BrdU (3 μg/ml). After 12 hours, the spheres were plated for 1 hour on poly-L-lysine (0.01%, Cultrex)-coated glass coverslips (Marienfeld GmbH, Germany), fixed in 4% paraformaldehyde for 10 min, treated with 1N HCl for antigen retrieval for BrdU staining, incubated for 1 hour in blocking solution (0.3% Triton, 15% goat serum in 1×PBS), and incubated overnight with either anti-cleaved caspase3 antibody to assess cell death, or anti-BrdU antibody to assess cell proliferation. After 3 washing steps with 1×PBS, the spheres were incubated in secondary antibody for 2 hours (568 Alexa Fluor anti rat or anti mouse). Nuclei were stained with DAPI. Staining was visualized by epifluorescence microscopy (Axioskop 2 Mot Axiocam, Zeiss). Counting was done with the Metamorph software.

The next experiment relates to p38, JNK or NF-κB p65. Nature of the experiment: p38, JNK and NF-κB p65 activity after TRAIL in cultured Schwann cells (immunoblot). Conditions: opg −/− Schwann cells treated with TRAIL.

Regarding `COc1cccc(-c2cc(=O)c3ccccc3o2)c1N` [PD 98059, reference compound], in the experiment on ERK kinase [1], the “H2O2 induced ERK kinase activation” value is given as “suppressed”. The “H2O2 induced oxidative cell death” value in experiment [2] was “rescued”. For the same molecule, the “TRAIL induced cleaved caspase 3 (cell death)” value in the experiment with Schwann cells is on record as “suppressed”. The “TRAIL induced ERK phosphorylation / ERK activation” value in the experiment with ERK kinase [3] is given as “suppressed”.

Regarding `O=P(O)(O)C(O)(Cn1ccnc1)P(=O)(O)O` [zoledronate, reference compound], the “H2O2 induced ERK kinase activation” value in the experiment on ERK kinase [1] is given as “suppressed”. Also, the “H2O2 induced oxidative cell death” value in experiment [2] is “rescued”. Also, the “TRAIL induced cleaved caspase 3 (cell death)” value in the experiment with Schwann cells is recorded as “suppressed”. For the same molecule, the “TRAIL induced ERK phosphorylation / ERK activation” value in the experiment with ERK kinase [3] is reported as “suppressed”. The “proliferation of opg−/− spheres (number of BrdU positive cells)” value with opg −/− spheres [4] is “significantly enhanced; also recorded: increased”. The “apoptosis in opg−/− spheres (number of cleaved caspase 3 positive cells)” value (“apoptosis in opg−/− spheres” for short) in the experiment with opg −/− spheres [5] was “reduced; also recorded: decreased”.

B1: TRAIL: TNF-related apoptosis-inducing ligand, recombinant (protein, UniProt P50591 1-281, looked up)
Tumor necrosis factor ligand …: MAMMEVQGGPSLGQTCVLIVIFTVLLQSLCVAVTYVYFTNELKQMQDKYSKSGIACFLKEDDSYWDPNDEESMNSPCWQVKWQLRQLVRKMILRTSEETISTVQEKQQNISPLVRERGPQRVAAHITGTRGRSNTLSSPNSKNEKALGRKINSWESSRSGHSFLSNLHLRNGELVIHEKGFYYIYSQTYFRFQEEIKENTKNDKQMVQYIYKYTSYPDPILLMKSARNSCWSKDAEYGLYSIYQGGIFELKENDRIFVSVTNEHLIDMDHEASFFGAFLVG
Regarding B1, the “cleavage of caspase 3 / cell death caused by TRAIL itself” value in the experiment on Schwann cells (Schwann cells treated with recombinant TRAIL (100 ng/ml)) is given as “increased; also recorded: induced cell death”. Also, in the experiment with ERK kinase [3] (cells treated with TRAIL (100 ng/ml)), the “ERK phosphorylation caused by TRAIL itself” value is recorded as “activated”. The “p38, JNK or NF-κB p65 activity after TRAIL” value in the experiment with p38, JNK or NF-κB p65 is “did not affect”.

B2: OPG: Osteoprotegerin, cytokine receptor of the TNF receptor superfamily; recombinant protein from R & D Systems (protein)
chain: MNNLLCCALVFLDISIKWTTQETFPPKYLHYDEETSHQLLCDKCPPGTYLKQHCTAKWKTVCAPCPDHYYTDSWHTSDECLYCSPVCKELQYVKQECNRTHNRVCECKEGRYLEIEFCLKHRSCPPGFGVVQAGTPERNTVCKRCPDGFFSNETSSKAPCRKHTNCSVFGLLLTQKGNATHDNICSGNSESTQKCGIDVTLCEEAFFRFAVPTKFTPNWLSVLVDNLPGTKVNAESVERIKRQHSSQEQTFQLLKLWKHQNKDQDIVKKIIQDIDLCENSVQRHIGHANLTFEQLRSLMESLPGKKVGAEDIEKTIKACKPSDQILKLLSLWRIKNGDQDTLKGLMHALKHSKTYHFPKTVTQSLKKTIRFLHSFTMYKLYQKLFLEMIGNQVQSVKISCL
modifications: homo sapiens OPG
notes: Osteoprotegerin, cytokine receptor of the TNF receptor superfamily; recombinant protein from R & D Systems
For B2, the “H2O2 induced ERK kinase activation” value in the experiment with ERK kinase [1] is on record as “suppressed”. Moreover, in experiment [2] (opg −/− SGCs, no H2O2), the “cell death without H2O2 treatment” value was “did not significantly affect”. Moreover, in experiment [2], the “H2O2 induced oxidative cell death” value is given as “rescued”. In the experiment on Schwann cells, the “TRAIL induced cleaved caspase 3 (cell death)” value is listed as “suppressed”. Also, in the experiment on ERK kinase [3], the “TRAIL induced ERK phosphorylation / ERK activation” value is on record as “suppressed”. The “proliferation of opg−/− spheres (number of BrdU positive cells)” value with opg −/− spheres [4] is “significantly enhanced; also recorded: increased”. The “apoptosis in opg−/− spheres” value in the experiment on opg −/− spheres [5] was “reduced; also recorded: decreased”.

B3: RANKL: RANK ligand, from R & D Systems (protein, UniProt O14788 140-317, looked up)
Tumor necrosis factor ligand …: IRAEKAMVDGSWLDLAKRSKLEAQPFAHLTINATDIPSGSHKVSLSSWYHDRGWAKISNMTFSNGKLIVNQDGFYYLYANICFRHHETSGDLATEYLQLMVYVTKTSIKIPSSHTLMKGGSTKYWSGNSEFHFYSINVGGFFKLRSGEEISIEVSNPSLLDPDQDATYFGAFKVRDID
Take B3: the “apoptosis in opg−/− spheres” value is given as “significantly increased” with opg −/− spheres [5] and “increased” in the experiment with opg −/− spheres [5] (listed as Rankl).
